The results in this text go back to IntAct's records for PubMed 19008859.

First the molecules themselves.
B1: Myocardin-related transcription factor A (Mus musculus), Q8K4J6 (parent)
chain: MTLLEPEMLMMAVQSVLQLKLQQRRTREELVSQGIMPPLKSPAAFHEQRRSLERARTEDYLKRKIRSRPERAELVRMHILEETSAEPSLQAKQLKLKRARLADDLNEKIAQRPGPMELVEKNILPVESSLKEAIIVGQVNYPKVADSSSFDEDSSDALSPEQPASHESQGSVPSPLESRVSDPLPSATSISPTQVLSQLPMAPDPGETLFLAEQPPLPPAPLLPPSLANGSIVPTAKPAPTLIKQSQPKSASEKSQRSKKAKELKPKVKKLKYHQYIPPDQKQDKGAPAMDSSYAKILQQQQLFLQLQILNQQQQQQQQQHYNYQAILPAPPKPSAETPGSSAPTPSRSLSTSSSPSSGTPGPSGLARQSSTALAAKPGALPANLDDMKVAELKQELKLRSLPVSGTKTELIERLRAYQDQVSPAPGAPKAPATTSVLSKAGEVVVAFPAALLSTGSALVTAGLAPAEMVVATVTSNGMVKFGSTGSTPPVSPTPSERSLLSTGDENSTPGDAFGEMVTSPLTQLTLQASPLQIVKEEGARAASCCLSPGARAELEGLDKDQMLQEKDKQIEELTRMLQQKQQLVELLRLQLEQQKRAQQPAPASSPVKRESGFSSCQLSCQPQGSAHAFGSGLVVPTTNHGDTQAPAPESPPVVVKQEAGPPEPDLAPSSQLLLGSQGTSFLKRVSPPTLVTDSTGTHLILTVTNKSADGPGLPAGSPQQPLSQPGSPAPGPPAQMDLEHPPQPPFATPTSLLKKEPPGYEETVTQQPKQQENGSSSQHMDDLFDILIQSGEISADFKEPPSLPGKEKSPPAAAAYGPPLTPQPSPLSELPQAAPPPGSPTLPGRLEDFLESSTGLPLLTSGHEGPEPLSLIDDLHSQMLSSSAILDHPPSPMDTSELHFAPEPSSGMGLDLAVGHLDSMDWLELSSGGPVLSLAPLSTAAPSLFSMDFLDGHDLQLHWDSCL

The variants in the first experiment derive from B1. The settings on record: with acts_rabit ACTA1, P68135.
Take P69R: the “effect of a mutation on the interaction” value is given as “decreasing interaction”.

Variants of B1 are the subject of the next experiment. As to conditions: with acts_rabit ACTA1, P68135. This is another data set of the same source.
For the variant G114E;P115R, the “effect of a mutation on the interaction” value is on record as “increasing interaction”.

Variants of B1 are the subject of another experiment. The settings on record: with acts_rabit ACTA1, P68135. The source holds these as a separate data set.
In the case of L105A;I109A, the “effect of a mutation on the interaction” value is on record as “disrupting interaction”.

In a further experiment the parent is B1. As to conditions: with acts_rabit ACTA1, P68135. This is another data set of the same source.
As to L118A;I123A;L124A, the “effect of a mutation on the interaction” value is recorded as “disrupting interaction”.

Variants of B1 are the subject of the next experiment. As to conditions: with acts_rabit ACTA1, P68135. The source holds these as a separate data set.
Take R112A: the “effect of a mutation on the interaction” value is on record as “disrupting interaction”.

The next experiment covers variants of B1. The settings on record: with acts_rabit ACTA1, P68135. This is another data set of the same source.
For L74A;I79A;L80A, the “effect of a mutation on the interaction” value was “disrupting interaction”.

Another experiment covers variants of B1. As to conditions: with acts_rabit ACTA1, P68135. This is another data set of the same source.
For the variant R24A, the “effect of a mutation on the interaction” value was “disrupting interaction”.

Variants of B1 are the subject of another experiment. The settings on record: with acts_rabit ACTA1, P68135. This is another data set of the same source.
For L61A;I65A, the “effect of a mutation on the interaction” value is given as “disrupting interaction”.

The variants in a further experiment derive from B1. As to conditions: with acts_rabit ACTA1, P68135. This is another data set of the same source.
For the variant G114E;P115Q;L118A;I123A;L124A, the “effect of a mutation on the interaction” value is listed as “disrupting interaction”.

Another experiment covers variants of B1. The settings on record: with acts_rabit ACTA1, P68135. The source holds these as a separate data set.
In the case of R68A, the “effect of a mutation on the interaction” value was “disrupting interaction”.

The variants in the next experiment derive from B1. The settings on record: with acts_rabit ACTA1, P68135. This is another data set of the same source.
Regarding R24D;R25D, the “effect of a mutation on the interaction” value is reported as “disrupting interaction”.
